Earlier results on one molecule are cited in US7214519B2, “Screening method for identifying heme independent modulators of soluble guanylyl cyclase (sGC) activity using αβCys105 mutant sGC” (Board of Regents of the University of Texas System, priority 2003, dated 2007).

The data set concerns the target T1, αβ^Phe105 sGC (Bos taurus, UniProt P16068+P19687, H105F).
T1 sequence (P16068 1-619 H105F): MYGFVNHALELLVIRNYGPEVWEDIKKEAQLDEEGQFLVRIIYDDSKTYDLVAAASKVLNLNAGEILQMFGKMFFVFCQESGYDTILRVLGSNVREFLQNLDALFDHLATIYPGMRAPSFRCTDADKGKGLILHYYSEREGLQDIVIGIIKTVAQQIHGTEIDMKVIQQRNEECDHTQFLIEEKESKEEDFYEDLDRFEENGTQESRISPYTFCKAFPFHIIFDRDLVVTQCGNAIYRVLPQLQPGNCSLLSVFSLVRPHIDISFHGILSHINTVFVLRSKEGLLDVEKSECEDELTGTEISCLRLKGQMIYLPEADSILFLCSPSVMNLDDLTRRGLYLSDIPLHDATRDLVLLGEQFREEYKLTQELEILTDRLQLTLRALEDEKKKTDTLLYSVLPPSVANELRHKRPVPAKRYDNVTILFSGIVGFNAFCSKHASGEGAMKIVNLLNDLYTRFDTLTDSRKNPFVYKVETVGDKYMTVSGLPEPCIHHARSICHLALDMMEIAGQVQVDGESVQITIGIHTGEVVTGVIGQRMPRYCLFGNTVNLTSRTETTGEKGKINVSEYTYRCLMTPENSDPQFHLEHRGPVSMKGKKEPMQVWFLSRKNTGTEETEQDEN
T1 sequence (P19687 1-691): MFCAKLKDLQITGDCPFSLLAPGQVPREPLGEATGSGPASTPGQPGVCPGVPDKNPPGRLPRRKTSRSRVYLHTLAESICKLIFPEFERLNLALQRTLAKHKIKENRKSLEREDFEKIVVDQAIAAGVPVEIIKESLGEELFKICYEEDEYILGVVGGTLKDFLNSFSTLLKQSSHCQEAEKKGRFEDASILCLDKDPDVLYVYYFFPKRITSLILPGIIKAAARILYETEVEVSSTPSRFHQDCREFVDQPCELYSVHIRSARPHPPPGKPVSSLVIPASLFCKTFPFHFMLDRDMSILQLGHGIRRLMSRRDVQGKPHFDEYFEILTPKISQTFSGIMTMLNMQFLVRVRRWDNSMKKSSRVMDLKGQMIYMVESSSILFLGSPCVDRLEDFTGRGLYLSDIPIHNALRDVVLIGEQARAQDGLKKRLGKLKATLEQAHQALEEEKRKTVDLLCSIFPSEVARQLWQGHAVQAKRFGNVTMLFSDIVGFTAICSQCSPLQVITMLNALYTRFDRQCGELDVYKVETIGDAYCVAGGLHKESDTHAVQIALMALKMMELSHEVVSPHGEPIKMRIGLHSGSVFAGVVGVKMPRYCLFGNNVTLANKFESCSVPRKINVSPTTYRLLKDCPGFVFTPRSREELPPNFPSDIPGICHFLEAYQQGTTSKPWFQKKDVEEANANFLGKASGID
To be noted: cited from earlier work; for Specific activity: with DTT.

Read-outs that look alike come from different tables or passages of the source.

B1: αβ^Phe105: bovine sGC with βHis105→Phe substitution, from the literature (40) (protein, UniProt P19687 1-691; P16068 1-619, looked up, variant H105F)
Guanylate cyclase soluble … 1: T1 sequence (P19687 1-691)
Guanylate cyclase soluble … 2: T1 sequence (P16068 1-619 H105F)
modifications: mutation in beta subunit
Turning to B1, the basal activity entry is reported as “about 40 nmol/min/mg”. The Specific activity (+NO) was 0.11 ± 0.03 µmol/min/mg. Moreover, the Specific activity (Basal) was 0.04 ± 0.03 µmol/min/mg.
